Test results reported in patent US20200299408A1 (Genentech, published 2020).

Experiments:
[1] = target: T1, single chain human CD3ε-26mer-CD3γ (CD3εγ) (human); assay: Biacore single cycle kinetics; KD relative to hu38E4.v1
T1 construct: also called human CD3εγ
T1 chain: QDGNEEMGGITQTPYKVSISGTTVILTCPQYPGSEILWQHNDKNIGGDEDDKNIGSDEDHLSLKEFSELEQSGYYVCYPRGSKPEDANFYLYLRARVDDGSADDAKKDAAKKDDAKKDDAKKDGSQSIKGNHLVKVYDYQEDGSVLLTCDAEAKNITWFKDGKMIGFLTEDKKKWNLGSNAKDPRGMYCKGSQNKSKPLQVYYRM
Description: (§1) In addition, position 95 in HVR-H3 was also mutated to serine, threonine, or glutamate. Variants with these single point mutations were expressed as Fabs in HEK293 cells and initially screened with a single cycle kinetics method on a Biacore T100. Selected variants were also scaled up and purified for a conventional multi-cycle kinetics method. For single cycle kinetics, Biacore Series S CM5 sensor chips were immobilized with anti-human Fab antibodies (Human Fab capture kit, GE Healthcare). […] For conventional multi-cycle kinetics, human CD3εγ, cyno CD3εγ, or a 27-mer peptide were immobilized on Biacore Series S CM5 sensor chip using the amine coupling kit from Biacore. Serial 3-fold dilutions of each Fab variant were injected at a flow rate of 30 μl/min. Each sample was analyzed with a protocol of 3-minute association and 3-minute dissociation. In both methods, the Biacore chips were regenerated using 10 mM Glycine (pH 1.7). Binding response was corrected by blank subtraction and a 1:1Languir model of simultaneous fitting of kₒₙ and koff was used for kinetics analysis.

[2] = target: T1, single chain human CD3ε-26mer-CD3γ …; assay: Biacore single cycle kinetics: Fab captured by anti-human Fab, human CD3εγ injected (3-250 nM)
Description: as §1

[3] = target: T1, single chain human CD3ε-26mer-CD3γ …; assay: Biacore full (multi-) cycle kinetics; KD relative to hu38E4.v1
Description: as §1

[4] = target: T1, single chain human CD3ε-26mer-CD3γ …; assay: Biacore full (multi-) cycle kinetics: antigen on chip, Fab injected; antigen not named on the sheet, taken as human CD3εγ
Description: as §1

[5] = target: T2, Commercial hCD3eg; assay: mu IgG against commercial hCD3eg; method not stated on the sheet
T2 chain 1: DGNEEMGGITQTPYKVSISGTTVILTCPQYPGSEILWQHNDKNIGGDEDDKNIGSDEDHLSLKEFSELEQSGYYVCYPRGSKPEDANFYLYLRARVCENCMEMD
T2 chain 2: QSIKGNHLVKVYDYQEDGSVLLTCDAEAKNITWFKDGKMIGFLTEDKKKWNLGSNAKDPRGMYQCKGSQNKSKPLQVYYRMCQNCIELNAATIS

[6] = target: T3, commercial CD3ε (Creative Biomart, Catalog Number CD3E-2194H) (human, UniProt P07766); assay: binding affinity on commercial CD3ε (Creative Biomart CD3E-2194H); method not stated in the legend
T3 construct: commercial recombinant protein; also called commercial CD3E

B1: hu38E4.v1 H3 mutant D101A (Fab, V domains shown)
VH: EVQLVQSGAEVKKPGASVKVSCKASGFTFTSYYIHWVRQAPGQGLEWIGWIYPENDNTKYNEKFKDRVTITADTSTSTAYLELSSLRSEDTAVYYCARDGYSRYYFAYWGQGTLVTVSS
VL: DIVMTQSPDSLAVSLGERATINCKSSQSLLNSRTRKNYLAWYQQKPGQSPKLLIYWTSTRKSGVPDRFSGSGSGTDFTLTISSLQAEDVAVYYCKQSFILRTFGQGTKVEIK
notes: copies: 1 + 1
B1 was tested, and the “ratio (fold)” value [1] was 7.2 fold, the Kd [2] was 24.1 nM and the koff [2] was 0.00342 s⁻¹. For the same binder, the kon [2] was 142000 M⁻¹ s⁻¹.

B2: hu38E4.v1 L3 mutant I93A (Fab, V domains shown)
VH: EVQLVQSGAEVKKPGASVKVSCKASGFTFTSYYIHWVRQAPGQGLEWIGWIYPENDNTKYNEKFKDRVTITADTSTSTAYLELSSLRSEDTAVYYCARDGYSRYYFDYWGQGTLVTVSS
VL: DIVMTQSPDSLAVSLGERATINCKSSQSLLNSRTRKNYLAWYQQKPGQSPKLLIYWTSTRKSGVPDRFSGSGSGTDFTLTISSLQAEDVAVYYCKQSFALRTFGQGTKVEIK
notes: copies: 1 + 1
In the case of B2, the “ratio (fold)” value [3] is reported as 5.1 fold, the Kd [4] is reported as 4 nM and the koff [4] is reported as 0.0124 s⁻¹. The kon [4] was 3.08e+06 M⁻¹ s⁻¹.

B3: hu38E4.v1 H3 mutant S98A (Fab, V domains shown)
VH: EVQLVQSGAEVKKPGASVKVSCKASGFTFTSYYIHWVRQAPGQGLEWIGWIYPENDNTKYNEKFKDRVTITADTSTSTAYLELSSLRSEDTAVYYCARDGYARYYFDYWGQGTLVTVSS
VL: DIVMTQSPDSLAVSLGERATINCKSSQSLLNSRTRKNYLAWYQQKPGQSPKLLIYWTSTRKSGVPDRFSGSGSGTDFTLTISSLQAEDVAVYYCKQSFILRTFGQGTKVEIK
notes: copies: 1 + 1
In the case of B3, the “ratio (fold)” value [1] is reported as 1.1 fold, the Kd [2] is reported as 3.8 nM and the koff [2] is reported as 0.00147 s⁻¹. It also gave a kon [2] of 385000 M⁻¹ s⁻¹.

B4: hu38E4.v1 L3 mutant K89A (Fab, V domains shown)
VH: EVQLVQSGAEVKKPGASVKVSCKASGFTFTSYYIHWVRQAPGQGLEWIGWIYPENDNTKYNEKFKDRVTITADTSTSTAYLELSSLRSEDTAVYYCARDGYSRYYFDYWGQGTLVTVSS
VL: DIVMTQSPDSLAVSLGERATINCKSSQSLLNSRTRKNYLAWYQQKPGQSPKLLIYWTSTRKSGVPDRFSGSGSGTDFTLTISSLQAEDVAVYYCAQSFILRTFGQGTKVEIK
notes: copies: 1 + 1
B4 was tested, and the “ratio (fold)” value [1] was 0.7 fold, the Kd [2] was 2.4 nM and the koff [2] was 0.00102 s⁻¹. The kon [2] was 428000 M⁻¹ s⁻¹.

B5: hu38E4.v1 L3 mutant Q90A (Fab, V domains shown)
VH: EVQLVQSGAEVKKPGASVKVSCKASGFTFTSYYIHWVRQAPGQGLEWIGWIYPENDNTKYNEKFKDRVTITADTSTSTAYLELSSLRSEDTAVYYCARDGYSRYYFDYWGQGTLVTVSS
VL: DIVMTQSPDSLAVSLGERATINCKSSQSLLNSRTRKNYLAWYQQKPGQSPKLLIYWTSTRKSGVPDRFSGSGSGTDFTLTISSLQAEDVAVYYCKASFILRTFGQGTKVEIK
notes: copies: 1 + 1
B5 was tested, and the “ratio (fold)” value [3] was 29.9 fold, the Kd [4] was 23.8 nM and the koff [4] was 0.00422 s⁻¹. The kon [4] was 178000 M⁻¹ s⁻¹.

B6: hu38E4.v1 H3 mutant Y102A (Fab, V domains shown)
VH: EVQLVQSGAEVKKPGASVKVSCKASGFTFTSYYIHWVRQAPGQGLEWIGWIYPENDNTKYNEKFKDRVTITADTSTSTAYLELSSLRSEDTAVYYCARDGYSRYYFDAWGQGTLVTVSS
VL: DIVMTQSPDSLAVSLGERATINCKSSQSLLNSRTRKNYLAWYQQKPGQSPKLLIYWTSTRKSGVPDRFSGSGSGTDFTLTISSLQAEDVAVYYCKQSFILRTFGQGTKVEIK
notes: copies: 1 + 1
With B6 the “ratio (fold)” value [1] was 1.2 fold, the Kd [2] was 4.1 nM and the koff [2] was 0.00132 s⁻¹. The kon [2] was 322000 M⁻¹ s⁻¹.

B7: 30A1 (antibody, IgG1, V domains shown)
VH: QVQLKESGPGLVAPSQSLSITCTVSGFSLTNYAIHWVRQPPGKGLDWLGVIWAGGNTKYNSALMSRLSFSKDNSKSQVFLEINSLQTDDTAMYYCAREDSSGYVALDYWGQGTSVTVSS
VL: NIVMTQSPSSLAVSAGEKVTMSCKSSQSLLSGRTRKNYLAWYQQKPGQSPKLLIYWASTRESGVPDRFTGSGSGTDFTLTISSVQAEDLAVYYCKQSYYLLTFGAGTKLELK
notes: mouse hybridoma clone
B7 was tested, and the Kd [5] was 0.4 nM.

B8: 13A3 (antibody, IgG2b, V domains shown)
VH: EVQLQQSGPELVKPGASVRISCKASGYTFTSYYIHWMKQRPGQGLEWIGWIYPGNVNTKYNEKFKGKATLTADNSSSTANMQLSSLTSEDSAVYFCARNHDYYFDYWGQGTTLTVSS
VL: DIVLTQSPSSLAVSAGEKVTMSCKSSQSLLNSRTRKNYLAWYQQKPGQSPKLLIYWASTRESGVPDRFTGSGSGTDFTLTISSVQAEDLAVYYCKQSYILRTFGGGTKLEIK
notes: mouse hybridoma clone; also called 13A3 (xCD3)
B8 gave a Kd [5] of 0.6 nM.

B9: 19B1 (antibody, IgG2b, V domains shown)
VH: EVQLQQSGPELVKPGASVRISCKASGYTFTSYYIHWMKQRPGQGLEWIGWIYPGNVNTKYNEKFKGKATLTADNSSSTANMQLSSLTSEDSAVYFCARNHDYYFDYWGQGTTLTVSS
VL: GIVMTQSPSSLAVSAGEKVTMSCKSSQSLLNSRTRKNYLAWYQQKPGQSPKLLIYWASTRESGVPDRFTGSGSGTDFTLTISSVQAEDLAVYYCKQSYILRTFGGGTKLEIK
notes: mouse hybridoma clone; also called 19B1 (xCD3)
With B9 the Kd [5] was 0.7 nM.

B10: murine SP34 (antibody, V domains shown)
VH: EVQLVESGGGLVQPKGSLKLSCAASGFTFNTYAMNWVRQAPGKGLEWVARIRSKYNNYATYYADSVKDRFTISRDDSQSILYLQMNNLKTEDTAMYYCVRHGNFGNSYVSWFAYWGQGTLVTVSS
VL: QAVVTQESALTTSPGETVTLTCRSSTGAVTTSNYANWVQEKPDHLFTGLIGGTNKRAPGVPARFSGSLIGDKAALTITGAQTEDEAIYFCALWYSNLWVFGGGTKLTVL
B10 gave a Kd [6] of 7 nM.

B11: humanized SP34 variant: λ7 graft + F36V + T46G + Y49G / VH3 graft + N73D + T93V (antibody, V domains shown)
VH: EVQLVESGGGLVQPGGSLRLSCAASGFTFNTYAMNWVRQAPGKGLEWVGRIRSKYNNYATYYADSVKDRFTISRDDSKNTLYLQMNSLRAEDTAVYYCVRHGNFGNSYVSWFAYWGQGTLVTVSS
VL: EAVVTQEPSLTVSPGGTVTLTCRSSTGAVTTSNYANWVQQKPGQAPRGLIGGTNKRAPWTPARFSGSLLGGKAALTLSGAQPEDEAEYYCALWYSNLWVFGGGTKLTVL
B11 showed a Kd [6] of 3.5 nM.

B12: humanized SP34 variant: λ7 graft + F36V + T46G + Y49G / VH3 graft G49A + N73D + T93V (antibody, V domains shown)
VH: EVQLVESGGGLVQPGGSLRLSCAASGFTFNTYAMNWVRQAPGKGLEWVARIRSKYNNYATYYADSVKDRFTISRDDSKNTLYLQMNSLRAEDTAVYYCVRHGNFGNSYVSWFAYWGQGTLVTVSS
VL: EAVVTQEPSLTVSPGGTVTLTCRSSTGAVTTSNYANWVQQKPGQAPRGLIGGTNKRAPWTPARFSGSLLGGKAALTLSGAQPEDEAEYYCALWYSNLWVFGGGTKLTVL
B12 gave a Kd [6] of 14.5 nM.

B13: humanized SP34 variant: λ7 graft + F36V + Q38E + A43L + P44F + T46G + Y49G + T58V + Y87F / VH3 graft G49A + N73D + T93V (antibody, V domains shown)
VH: EVQLVESGGGLVQPGGSLRLSCAASGFTFNTYAMNWVRQAPGKGLEWVARIRSKYNNYATYYADSVKDRFTISRDDSKNTLYLQMNSLRAEDTAVYYCVRHGNFGNSYVSWFAYWGQGTLVTVSS
VL: EAVVTQEPSLTVSPGGTVTLTCRSSTGAVTTSNYANWVQEKPGQLFRGLIGGTNKRAPWVPARFSGSLLGGKAALTLSGAQPEDEAEYFCALWYSNLWVFGGGTKLTVL
B13 showed a Kd [6] of 8 nM.

B14: humanized SP34 variant: λ7 graft + F36V + Q38E + A43L + P44F + T46G + Y49G + T58V + Y87F / VH3 graft + G49A + T93V (antibody, V domains shown)
VH: EVQLVESGGGLVQPGGSLRLSCAASGFTFNTYAMNWVRQAPGKGLEWVARIRSKYNNYATYYADSVKDRFTISRDNSKNTLYLQMNSLRAEDTAVYYCVRHGNFGNSYVSWFAYWGQGTLVTVSS
VL: EAVVTQEPSLTVSPGGTVTLTCRSSTGAVTTSNYANWVQEKPGQLFRGLIGGTNKRAPWVPARFSGSLLGGKAALTLSGAQPEDEAEYFCALWYSNLWVFGGGTKLTVL
In the case of B14, the Kd [6] is reported as 21 nM.

B15: humanized SP34 variant: λ7 graft + F36V + T46G + Y49G / VH3 graft + T93V (antibody, V domains shown)
VH: EVQLVESGGGLVQPGGSLRLSCAASGFTFNTYAMNWVRQAPGKGLEWVGRIRSKYNNYATYYADSVKDRFTISRDNSKNTLYLQMNSLRAEDTAVYYCVRHGNFGNSYVSWFAYWGQGTLVTVSS
VL: EAVVTQEPSLTVSPGGTVTLTCRSSTGAVTTSNYANWVQQKPGQAPRGLIGGTNKRAPWTPARFSGSLLGGKAALTLSGAQPEDEAEYYCALWYSNLWVFGGGTKLTVL
In the case of B15, the Kd [6] is reported as 15.9 nM.

B16: humanized SP34 variant: λ7 graft + F36V + Q38E + A43L + P44F + T46G + Y49G + T58V + Y87F / VH3 graft + N73D + T93V (antibody, V domains shown)
VH: EVQLVESGGGLVQPGGSLRLSCAASGFTFNTYAMNWVRQAPGKGLEWVGRIRSKYNNYATYYADSVKDRFTISRDDSKNTLYLQMNSLRAEDTAVYYCVRHGNFGNSYVSWFAYWGQGTLVTVSS
VL: EAVVTQEPSLTVSPGGTVTLTCRSSTGAVTTSNYANWVQEKPGQLFRGLIGGTNKRAPWVPARFSGSLLGGKAALTLSGAQPEDEAEYFCALWYSNLWVFGGGTKLTVL
B16 gave a Kd [6] of 3.1 nM.
